Data on one molecule can be found in publication PMC5548138 (Neuron, 2017).

This assay addresses recombinant bovine NX-1α protein (btNX-1α), ectodomain L1-L6 his6 (bovine, UniProt Q28146 31-1454). Description: co-IP.

Chain of recombinant bovine NX-1α protein (btNX-1α), ectodomain L1-L6 his6 (Q28146 31-1454): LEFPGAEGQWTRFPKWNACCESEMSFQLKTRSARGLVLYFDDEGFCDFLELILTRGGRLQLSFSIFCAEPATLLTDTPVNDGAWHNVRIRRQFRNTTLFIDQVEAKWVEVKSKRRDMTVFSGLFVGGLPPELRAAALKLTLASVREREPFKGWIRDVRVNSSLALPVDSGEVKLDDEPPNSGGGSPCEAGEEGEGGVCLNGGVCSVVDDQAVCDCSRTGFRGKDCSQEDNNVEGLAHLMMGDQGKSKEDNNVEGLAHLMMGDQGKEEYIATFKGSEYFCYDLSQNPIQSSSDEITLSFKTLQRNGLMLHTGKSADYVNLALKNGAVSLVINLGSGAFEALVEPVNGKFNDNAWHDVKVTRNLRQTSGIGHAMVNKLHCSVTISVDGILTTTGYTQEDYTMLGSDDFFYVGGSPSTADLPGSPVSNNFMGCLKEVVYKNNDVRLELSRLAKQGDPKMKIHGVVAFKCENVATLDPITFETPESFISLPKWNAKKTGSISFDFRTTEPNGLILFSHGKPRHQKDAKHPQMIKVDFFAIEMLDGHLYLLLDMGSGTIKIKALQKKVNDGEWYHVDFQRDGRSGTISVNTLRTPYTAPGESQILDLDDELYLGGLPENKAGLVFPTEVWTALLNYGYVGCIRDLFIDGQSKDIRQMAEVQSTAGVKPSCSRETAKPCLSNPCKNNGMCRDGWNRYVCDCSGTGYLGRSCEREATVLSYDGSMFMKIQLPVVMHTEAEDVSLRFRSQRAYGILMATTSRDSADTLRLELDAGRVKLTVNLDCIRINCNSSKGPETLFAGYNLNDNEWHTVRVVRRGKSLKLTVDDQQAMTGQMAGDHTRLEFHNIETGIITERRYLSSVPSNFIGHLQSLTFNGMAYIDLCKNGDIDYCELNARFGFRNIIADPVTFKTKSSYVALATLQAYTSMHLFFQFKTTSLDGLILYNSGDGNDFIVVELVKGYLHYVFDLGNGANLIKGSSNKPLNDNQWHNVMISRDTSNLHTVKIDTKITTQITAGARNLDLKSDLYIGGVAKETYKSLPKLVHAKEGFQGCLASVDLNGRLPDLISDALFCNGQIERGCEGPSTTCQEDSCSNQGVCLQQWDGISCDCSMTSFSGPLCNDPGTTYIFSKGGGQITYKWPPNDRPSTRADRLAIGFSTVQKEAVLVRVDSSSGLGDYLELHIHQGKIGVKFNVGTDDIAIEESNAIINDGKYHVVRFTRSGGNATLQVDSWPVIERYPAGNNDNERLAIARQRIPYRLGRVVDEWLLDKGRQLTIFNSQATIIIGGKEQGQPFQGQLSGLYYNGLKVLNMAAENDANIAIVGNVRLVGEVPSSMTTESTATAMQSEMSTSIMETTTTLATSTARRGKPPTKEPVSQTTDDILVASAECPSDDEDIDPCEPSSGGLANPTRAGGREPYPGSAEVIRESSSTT

B1: HA-tagged α2δ-3 (mouse) (natural protein, UniProt Q9Z1L5 34-1091, looked up)
chain: EQQIPLSVVKLWASAFGGEIKSIAAKYSGSQLLQKKYKEYEKDVAIEEIDGLQLVKKLAKIMEEMFHKKSEAVRRLVEAAEEAHLKHEFDADLQYEYFNAVLINERDKDGNFLELGKEFILAPNDHFNNLPVNISLSDVQVPTNMYNKDPAIVNGVYWSESLNKVFVDNFDRDPSLIWQYFGSAKGFFRQYPGIKWEPDENGVIAFDCRNRKWYIQAATSPKDVVILVDVSGSMKGLRLTIAKQTVSSILDTLGDDDFFNIITYNEELHYVEPCLNGTLVQADRTNKEHFREHLDKLFAKGIGMLDIALNEAFNILSDFNHTGQGSICSQAIMLITDGAVDTYDTIFAKYNWPDRKVRIFTYLIGREAAFADNLKWMACANKGFFTQISTLADVQENVMEYLHVLSRPKVIDQEHDVVWTEAYIDSTLPQAQKLADDQGLVLMTTVAMPVFSKQNETRSKGILLGVVGTDVPVKELLKTIPKYKLGIHGYAFAITNNGYILTHPELRPLYEEGKKRRKPNYSSVDLSEVEWEDRDDVLRNAMVNRKTGKFSMEVKKTVDKGKRVLVMTNDYYYTDIKGTPFSLGVALSRGHGKYFFRGNVTIEEGLHDLEHPDVSLADEWSYCNTDLHPEHRHLSQLEAIKLYLKGKEPLLQCDKELIQEVLFDAVVSAPIEAYWTSLALNKSENSDKGVEVAFLGTRTGLSRINLFVGAEQLTNQDFLKAGDKENIFNADHFPLWYRRAAEQIAGSFVYSIPFSTGTVNKSNVVTASTSIQLLDERKSPVVAAVGIQMKLEFFQRKFWTASRQCASLDGKCSISCDDETVNCYLIDNNGFILVSEDYTQTGDFFGEVEGAVMNKLLTMGSFKRITLYDYQAMCRANKESSDSAHGLLDPYKAFLSAAKWIMTELVLFLVEFNLCSWWHSDMTAKAQKLKQTLEPCDTEYPAFVSERTIKETTGNIACEDCSKSFVIQQIPSSNLFMVVVDSSCLCESVAPITMAPIEIRYNESLKCERLKAQKIRRRPESCHGFHPEENARECGGASSLQAQAALLLLPLVSSLFSR
As for B1, the Kd is roughly 40 nM.

In general, Kd refers to a measure of binding affinity in units of concentration.
